The chains are these.
T1: extracellular domain of CD99 (UniProt P14209 23-122, limits assumed)
T1 construct: extracellular domain; also called antigen CD99; purified recombinant extracellular domain of CD99
T1 sequence (looked up): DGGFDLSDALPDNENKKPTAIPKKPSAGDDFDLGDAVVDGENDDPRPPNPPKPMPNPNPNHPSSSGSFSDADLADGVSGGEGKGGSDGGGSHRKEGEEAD

B1: C6 anti-CD99 scFv (soluble) (scFv)
scFv: EVQLQQSGAELVKPGASVKLSCTASGFNIKDTYIHWVKRRPEQGLEWIGRIDPANGNTKYDPKFQGKATITADTSSNTAYLQLSSLTSEDTAVYYCARRGLDYWGQGTLVTVSAGGGGSGGGGSGGGGSDVVMTQTPLTLSVTIGQPASISCKSSQSLLDGDGKTYLNWLLQRPGQSPKRLIYLVSKLDSGVPDRFTGSGSGTDFTLKISRVEAEDLGVYYCWQGTHFPRTFGGGTKLEIK
notes: Selected from a CD99 phage antibody library; Expressed as soluble scFv in E. coli BL21 (DE3) from PET-28b (Nde I / Xho I) and purified
B2: C2 anti-CD99 scFv (soluble) (scFv)
scFv: EVQLQQSGAELVKPGASVKLSCTASGFNIKDTYIHWVKRRPEQGLEWIGRIDPANGNTKYDPKFQGKATITADTSSNTAYLQLSSLTSEDTAVYYCARRGGVDWGQGTLVTVSAGGGGSGGGGSGGGGSDVVMTQTPLTLSVTIGQPASISCKSSQSLLDGDGKTYLNWLLQRPGQSPKRLIYLVSKLDSGVPDRFTGSGSGTDFTLKISRVEAEDLGVYYCWQGTHFPRTFGGGTKLEIK
notes: Prior-art scFv; Expressed as soluble scFv in E. coli BL21 (DE3) from PET-28b; also called C2 in CN 110590960 A
B3: C4 anti-CD99 scFv (soluble) (scFv)
scFv: EVQLQQSGAELVKPGASVKLSCTASGFDIKDTYIHWVKQRPEQGLEWIGRIDPANGDTRYDPEFQGKASLTADTSSNTAYLQFSNLTSEDTAVYYCARRGGLSWGQGTTLTVSSGGGGSGGGGSGGGGSDIQMTQSPASLSASVGETVTITCRASGNIHNYLAWYQQKQGKSPQLLVYNAKTLADGVPSRFSGSGSGTQYSLKINSLQPEDFGSYYCQHFWSTPWTFGGGTKLEIK
notes: Prior-art scFv; Expressed as soluble scFv in E. coli BL21 (DE3) from PET-28b
B4: C3 anti-CD99 scFv (soluble) (scFv)
scFv: QVQLVQSGAEVKKPGASVKVSCKASGFNIKDTYIHWVRQAPGQGLEWMGRIDPANGNTKYDPKFQGRVTMTRDTSISTAYMELSRLRSDDTAVYYCARRGGVDWGQGTLVTVSSGGGGSGGGGSGGGGSDIVMTQTPLSLSVTPGQPASISCKSSQSLLDGDGKTYLNWLLQKPGQSPQRLIYLVSKLDSGVPDRFSGSGSGTDFTLKISRVEAEDVGVYYCWQGTHFPRTFGQGTKLEIK
notes: Prior-art scFv; Expressed as soluble scFv in E. coli BL21 (DE3) from PET-28b; also called C3 in CN 110590960 A

The target of the assay is T1, extracellular domain of CD99. Put plainly: surface plasmon resonance (BiacoreX), soluble scFv against extracellular domain of CD99. The text has this: The nucleotide sequences shown in SEQ ID NO: 2, SEQ ID NO: 4, SEQ ID NO: 6, SEQ ID NO: 8 and SEQ ID NO: 10 were artificially synthesized with the cleavage site Nde I and Xho I each added to either terminal. The synthetic nucleotide sequences were subjected to dual-enzyme digestion, and then ligated to a cloning vector PMD-19T subjected to the same digestion process as above. The ligated product was transformed into the competent cells, and then the positive clones were screened and sequenced. The plasmid was extracted from the positive clone with a correct sequence, and then subjected to dual-enzyme digestion by using Nde I and Xho I. Meanwhile, an expression vector PET-28b was also subjected to the same dual-enzyme digestion as above. The nucleotide fragment was ligated with the vector fragment, with which E. coli was transformed. The positive clones were screened and sequenced. The positive clone with correct sequence was selected for extracting the plasmid.
In general terms: SPR reads the build-up and loss of mass on a sensor chip optically.
As usually defined, the Kd is a measure of binding affinity in units of concentration. A lower Kd goes with tighter binding. On to B1, for which the Kd was determined as 450 nM.

B2 registered a Kd of 480 nM. Take B3: binding was characterised by a dissociation constant (Kd) of 600 nM. Molecule B4 displayed a Kd of 510 nM.

These data come from patent publication US20240317882A1 (WUHAN BIO RAID BIOTECH, published 2024).
